Experimental data published in IntAct's records for PubMed 14519764.

B1: Metabotropic glutamate receptor 1 (Rattus norvegicus (Rat)), P23385 (parent)
chain: MVRLLLIFFPMIFLEMSILPRMPDRKVLLAGASSQRSVARMDGDVIIGALFSVHHQPPAEKVPERKCGEIREQYGIQRVEAMFHTLDKINADPVLLPNITLGSEIRDSCWHSSVALEQSIEFIRDSLISIRDEKDGLNRCLPDGQTLPPGRTKKPIAGVIGPGSSSVAIQVQNLLQLFDIPQIAYSATSIDLSDKTLYKYFLRVVPSDTLQARAMLDIVKRYNWTYVSAVHTEGNYGESGMDAFKELAAQEGLCIAHSDKIYSNAGEKSFDRLLRKLRERLPKARVVVCFCEGMTVRGLLSAMRRLGVVGEFSLIGSDGWADRDEVIEGYEVEANGGITIKLQSPEVRSFDDYFLKLRLDTNTRNPWFPEFWQHRFQCRLPGHLLENPNFKKVCTGNESLEENYVQDSKMGFVINAIYAMAHGLQNMHHALCPGHVGLCDAMKPIDGRKLLDFLIKSSFVGVSGEEVWFDEKGDAPGRYDIMNLQYTEANRYDYVHVGTWHEGVLNIDDYKIQMNKSGMVRSVCSEPCLKGQIKVIRKGEVSCCWICTACKENEFVQDEFTCRACDLGWWPNAELTGCEPIPVRYLEWSDIESIIAIAFSCLGILVTLFVTLIFVLYRDTPVVKSSSRELCYIILAGIFLGYVCPFTLIAKPTTTSCYLQRLLVGLSSAMCYSALVTKTNRIARILAGSKKKICTRKPRFMSAWAQVIIASILISVQLTLVVTLIIMEPPMPILSYPSIKEVYLICNTSNLGVVAPVGYNGLLIMSCTYYAFKTRNVPANFNEAKYIAFTMYTTCIIWLAFVPIYFGSNYKIITTCFAVSLSVTVALGCMFTPKMYIIIAKPERNVRSAFTTSDVVRMHVGDGKLPCRSNTFLNIFRRKKPGAGNANSNGKSVSWSEPGGRQAPKGQHVWQRLSVHVKTNETACNQTAVIKPLTKSYQGSGKSLTFSDASTKTLYNVEEEDNTPSAHFSPPSSPSMVVHRRGPPVATTPPLPPHLTAEETPLFLADSVIPKGLPPPLPQQQPQQPPPQQPPQQPKSLMDQLQGVVTNFGSGIPDFHAVLAGPGTPGNSLRSLYPPPPPPQHLQMLPLHLSTFQEESISPPGEDIDDDSERFKLLQEFVYEREGNTEEDELEEEEDLPTASKLTPEDSPALTPPSPFRDSVASGSSVPSSPVSESVLCTPPNVTYASVILRDYKQSSSTL

Variants of: B1
Conditions: with pp1g_rat Ppp1cc

Variant	effect of a mutation on the interaction
S892A	decreasing interaction
